The data set addresses T1, Rme1 (Trichoderma reesei) (UniProt G0RR27).
T1 sequence: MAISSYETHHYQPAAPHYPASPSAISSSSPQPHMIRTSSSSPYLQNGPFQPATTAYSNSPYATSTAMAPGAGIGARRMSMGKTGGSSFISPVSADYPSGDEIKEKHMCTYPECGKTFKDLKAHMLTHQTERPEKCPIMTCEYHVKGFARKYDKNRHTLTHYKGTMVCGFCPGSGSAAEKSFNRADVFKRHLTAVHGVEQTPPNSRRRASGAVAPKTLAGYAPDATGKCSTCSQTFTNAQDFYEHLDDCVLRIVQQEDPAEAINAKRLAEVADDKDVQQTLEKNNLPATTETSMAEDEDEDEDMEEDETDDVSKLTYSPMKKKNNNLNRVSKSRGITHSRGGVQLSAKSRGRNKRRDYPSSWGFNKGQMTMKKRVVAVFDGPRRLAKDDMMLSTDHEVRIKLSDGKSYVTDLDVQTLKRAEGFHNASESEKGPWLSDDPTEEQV
Kind of data set: EMSA. Conditions: 20 mM Tris-HCl pH 7.4, 50 mM KCl, 5% glycerol, 1 mM DTT, 50 µg/mL BSA, 50 µM zinc sulfate; 100 ng probe, 25 min at room temperature; 6% native PAGE at 4 °C. (In general: In EMSA bound probe runs differently from free probe, usually more slowly.)

Here are results for one sequence from paper PMC12470938.

Turning to “AGCAGCAGCGGCAATAACAAATACAGTAACAAATGGGGACCAGAATGCGAATTTGAAACGACAGGAACGAACACGGAGGAGGGGGCGGGGGTTGGCACGTTGGCTAAAGAATATTTCTACCTATCCACAGATGTAGC (double strand) [Pswo probe]”, the binding entry is recorded as “no binding”.
